Assay results taken from patent US20110287011A1 (ONCOMED PHARMACEUTICALS, published 2011).

Legend:
Assay in all cases: FACS on HEK293 cells transfected with the DDR1 variant
[1] = target: FLAG-tagged human DDR1 S175A variant (human, UniProt Q08345 19-913)
Method: (§1) Full length cDNA encoding FLAG-tagged human DDR1 variants were transiently transfected into HEK293 cells using standard procedures as known to one skilled in the art. To determine the capacity of antibodies to bind the DDR1 variants, antibodies were incubated with HEK293 cells transfected with plasmid encoding either wild type DDR1 or one of the point mutation variants. All cells were co-transfected with plasmid encoding GFP. The cells were analyzed by FACS as described herein for binding of the antibodies to wild type DDR1 and to DDR1 variants.

[2] = target: FLAG-tagged human DDR1 D68A variant (human, UniProt Q08345 19-913)
Sequence of FLAG-tagged human DDR1 D68A variant (Q08345 other isoform, or with tags, fused parts or gaps D68A D68A limits assumed): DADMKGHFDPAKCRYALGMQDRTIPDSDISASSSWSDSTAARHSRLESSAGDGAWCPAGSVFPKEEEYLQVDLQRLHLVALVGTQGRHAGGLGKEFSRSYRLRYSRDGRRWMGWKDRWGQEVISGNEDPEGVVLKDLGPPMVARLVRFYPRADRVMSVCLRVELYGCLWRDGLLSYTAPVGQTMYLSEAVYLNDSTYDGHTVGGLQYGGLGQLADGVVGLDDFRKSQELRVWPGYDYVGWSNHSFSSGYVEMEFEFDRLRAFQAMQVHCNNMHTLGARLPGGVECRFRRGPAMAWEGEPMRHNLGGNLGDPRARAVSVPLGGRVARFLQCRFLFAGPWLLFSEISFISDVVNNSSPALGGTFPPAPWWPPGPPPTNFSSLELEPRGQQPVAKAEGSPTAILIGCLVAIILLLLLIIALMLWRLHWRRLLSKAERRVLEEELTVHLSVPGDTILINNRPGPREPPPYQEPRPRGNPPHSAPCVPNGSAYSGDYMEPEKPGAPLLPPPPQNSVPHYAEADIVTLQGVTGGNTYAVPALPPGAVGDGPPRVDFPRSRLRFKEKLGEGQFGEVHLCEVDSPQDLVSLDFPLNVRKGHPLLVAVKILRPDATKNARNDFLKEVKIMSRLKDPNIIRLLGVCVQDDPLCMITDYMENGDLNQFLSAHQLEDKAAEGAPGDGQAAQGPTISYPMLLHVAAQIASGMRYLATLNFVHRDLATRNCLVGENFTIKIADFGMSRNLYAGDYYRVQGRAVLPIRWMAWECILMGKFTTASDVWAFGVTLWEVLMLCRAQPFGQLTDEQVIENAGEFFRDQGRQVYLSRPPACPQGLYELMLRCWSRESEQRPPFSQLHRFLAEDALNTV
Method: as §1

[3] = target: FLAG-tagged human DDR1 R105A variant (human, UniProt Q08345 19-913)
Sequence of FLAG-tagged human DDR1 R105A variant (Q08345 other isoform, or with tags, fused parts or gaps R105A R105A limits assumed): as the sequence (Q08345 other isoform, or with tags, fused parts or gaps D68A D68A limits assumed) above, with A50D, R87A counted along it
Method: as §1

[4] = target: FLAG-tagged human DDR1 L110A variant (human, UniProt Q08345 19-913)
Sequence of FLAG-tagged human DDR1 L110A variant (Q08345 other isoform, or with tags, fused parts or gaps L110A L110A limits assumed): as the sequence (Q08345 other isoform, or with tags, fused parts or gaps D68A D68A limits assumed) above, with A50D, L92A counted along it
Method: as §1

[5] = target: FLAG-tagged human DDR1 E113Q variant (human, UniProt Q08345 19-913)
Sequence of FLAG-tagged human DDR1 E113Q variant (Q08345 other isoform, or with tags, fused parts or gaps E113Q E113Q limits assumed): as the sequence (Q08345 other isoform, or with tags, fused parts or gaps D68A D68A limits assumed) above, with A50D, E95Q counted along it
Method: as §1

Sequence of FLAG-tagged human DDR1 S175A variant (Q08345 other isoform, or with tags, fused parts or gaps S175A S175A limits assumed): as the sequence (Q08345 other isoform, or with tags, fused parts or gaps D68A D68A limits assumed) above, with A50D, S157A counted along it

binding result [1]: binds | binding result [2]: binds | binding result [3]: binds | binding result [4]: binds | binding result [5]: binds
B1: antibody 20M102 (antibody, mouse IgG1, kappa, V domains shown)
VH: EVQLQQSGSELVKPGASVKMSCKASGYTFTDYFMKWVKQSHGKSLEWIGDINPNNGDTFYIQKFKGKATLTVDKSSSTAYMQLNSLTSEDSAVYYCSRDLAYWGQGTLVAVSS
VL: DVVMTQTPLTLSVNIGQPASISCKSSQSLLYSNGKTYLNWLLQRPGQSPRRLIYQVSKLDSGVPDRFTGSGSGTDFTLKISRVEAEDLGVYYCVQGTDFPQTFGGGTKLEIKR
notes: Mouse monoclonal IgG purified from hybridoma supernatant; also called anti-DDR1 antibody 20M102; hybridoma ATCC PTA-10051
